Results published in PMC3071548 (Molecular microbiology, 2010).

Molecular target: the molecule itself
Assay: SEC

B1: YgbT, purified full-length protein (natural protein, E. coli, UniProt Q46896 1-305, looked up)
chain: MTWLPLNPIPLKDRVSMIFLQYGQIDVIDGAFVLIDKTGIRTHIPVGSVACIMLEPGTRVSHAAVRLAAQVGTLLVWVGEAGVRVYASGQPGGARSDKLLYQAKLALDEDLRLKVVRKMFELRFGEPAPARRSVEQLRGIEGSRVRATYALLAKQYGVTWNGRRYDPKDWEKGDTINQCISAATSCLYGVTEAAILAAGYAPAIGFVHTGKPLSFVYDIADIIKFDTVVPKAFEIARRNPGEPDREVRLACRDIFRSSKTLAKLIPLIEDVLAAGEIQPPAPPEDAQPVAIPLPVSLGDAGHRSS
- stoichiometry N: 2
